This data set can be described thus: soluble on expression in E. coli; label from the status in PepcDB or PDB records.
With “SLTEKDVLSQEEIDALLDSVDESIDGETNDEELNSSDQPARKKPEDTTGQELNSTFDSDIKVAEEGVKTLNFTGQERIVKGQLPVLDKIYDRAVRLFAADIYHLTARDFEIKQDPLLITKHKEFMRSLPNPSLIGIYKFKPLRGKGIILFDSTFVYDLVDYYFGGNSQFGAQKDKTDFTATELRVMEVVTKKLVTNLTHAWEPIIQLDVTKFNDETNPQLVNIAEPEEMLLVARFLLNFGKETGAFYFILPYSMLEPIKQQLELGASRPDDEIDPNWINSLKEELMDVELTVSASMAETVSTLGQVMAWKVGDFVPLEINEEVTLDIEGTPSFTATLGSANEKRALKIIKIIRY”, the “soluble on expression in E. coli” value is given as “soluble”.

Consider “MKMKILGISFGTKNGNNDTMCKVALKGAKEAGAEVEFIQMSSINIKHCTGCCACVKTLLSGKGSMCVLKDDFEWLLDKMKDADGIVVSDPIFEEGASGLFHTIMDRFGPRADRGNNIIGTKVAEAIGGKIPDSRMLNDKVISFMGIGGSDWGTRVQCEHAMLALIPMWKVIDNAWFPWAKELVMDDTRLVQVHQIGLNIVEAAKDFEKASYQGEEGVCPHCHNRLFYLEPGTKKAICALCGIVGELDTISGKTIFSFPEEQLGHAHDTLPGKFIHGDDIKKMEGHYAEVRKTQEFKERKTSYNFIETLTKEKQAGLEHHHHHH”, for which the “soluble on expression in E. coli” value is “not soluble”.

On to “MIEQIGADSKSAENKQERKLYIETYGCQMNVADSEVVASVMQMDGYNLTDNVDEADTILVNTCSVRDNAEQKVLNRLAYYHSLRKKRRASSRLVIGVLGCMAERVKEELIREHHVDVVAGPDSYLDLPNLVGAAEQGEKAINVELSTQETYKDVMPLKMGGVHINGFVSIMRGCNNFCSYCIVPYTRGRERSREIESILNEVRDLKAKNFREVTLLGQNVNSYRYEQNGRIIRFPDLLAAVAEAVPDMRIRFTSPHPKDMDDEAIAVMARYRNICNHIHLPAQSGSDKMLRVMKRGYTRRWYLDRVAAIRRAIPDCAISSDLFCGFHSETEEDFEATLSLMEEVRYDSAFMFKYSERPGTYAARHLADDVPEEVKLSRLDRMIALQNRLSEESNKRDIGKTFEVLIEGFSKRSREQLFGRTQQNKVVIFDKNGHRVGQYIYVRIKDASSATLFGEVVETPTSELEHHHHHH”, for which the “soluble on expression in E. coli” value was “soluble”.

On to “MTAYGHMPGEAIECLSIAVELHKQEVIDAHGQVTIRVGFKIGGGIDQDPTKAPFKYPDSGVYITNVESGSPADVAGLRKHDKILQVNGADFTMMTHDRAVKFIKQSKVLHMLVARADLPPVSLH”, for which the “soluble on expression in E. coli” value is on record as “not soluble”.

Consider “QPLPSAALRRCPPPARVGGRWVSAEKVNEGGSGGGGSQRLTRRARSTARVPAPGTMDAPRASAAKPPTGRKMKARAPPPPGKAATLHVHSDQKPPHDGALGSQQNLVRMKEALRASTMDVTVVLPSGLEKRSVLNGSHAMMDLLVELCLQNHLNPSHHALEIRSSETQQPLSFKPNTLIGTLNVHTVFLKEKVPEEKVKPGPPKVPEKSVRLVVNYLRTQKAVVRVSPEVPLQNILPVICAKCEVSPEHVVLLRDNIAGEELELSKSLNELGIKELYAWDNRRETFRKSSLGNDETDKEKKKFLGFFKVNKRSNSKGCLTTPNSPSMHSRSLTLGPSLSLGSISGVSVKSEMKKRRAPPPPGSGPPVQDKASEKVSLGSQIDLQKKKRRAPAPPPPQPPPPSPLIPNRTEDKEENRKSTMVSLPLGSGSHCSPDGAPQVLSEAEETVSVGSCFASEDTTEDSGVMSSPSDIVSLDSQQDSMKYKDKWATDQEDCSDQDLAGTPDLGPQKSPLWEKNGSENSHLRTEKAVTASNDEEDLLIAGEFRKTLAELDEDLEEMEDSYETDTSSLTSSIHGASNHCPQDAMIPHGDTDAIPVTFIGEVSDDPVDSGLFSNRNNNAGSFDSEGVASRRDSLAPLQAEHSQPHEKAREEVPALHPASHDVGKGIRVALSNISKDGNLMETAPRVTSFASNLHTDNLNAKVKDKVYGCADGERTQATERVNSQPVNEKDSNDKNAALAPTSWHQRGQNPGKSYRLKHGLTTYKIIPPKSEMRCYDRDVSLSTGAIKIDELGNLVSPHATGIRIISLSSSVPEAESQPIGKVREFWRCNSVEKHLGRPSESSARGPPSTPVPTQTQNPESRLQADPKPISPQQKSAHHEGRNPLGEGRNQPPTMGMGHVRVPAAHTTEVTFLKPQRRTSSQYVASAIAKRIGAPKVHADVVRPHGYAEKGYAGKAPVLAAPPVTVKDDRTSSPHSETQGWKDGAQWPCVTPPNNHGEDLAVGAPPRGEVIGPHRKLSTQDRPAAIHRSSCFSLVQSSQRDRVSVGQSCGFSGKQSTSSQEASSASEPRRAPDGTDPPPPHTSDTQACSRELVNGSVRAPGHGEPSHPPGGSGTESHILLEREEKPSVFSTDGNETDSIWPPSIFGPKKKFKPVVQRPVPKDTSLHSALMEAIHSAGGKDRLRKTAEHTGEGRPAKLSYTEAEGERSALLAAIRGHSGTCSLRKVASSASEELQSFRDAALSAQGSESPLLEDLGLLSPPAIPPPPPPPSQALSAPRTASRFSTGTLSNTADARQALMDAIRSGTGAARLRKVPLLV”, for which the “soluble on expression in E. coli” value was “soluble”.

Turning to “MSLGRRAAIYARYSTELQDGRSIDDQVALCREHAARSGLTVVATYDDRAKTSASIFGRDGLARMMEQARARQFDVVIVEALDRLSRDQEDLAHIHKRLSFARIDILTVHEGVADSVSVGLRGLMGTMFLEALKAKTRRGLAGVIRDGRHAGGQTYGYRGVPGEPGKREIVAHEAEIIREIFAAYVEGKSPRTIAGELNARGIAAPRGPKWNASTLNGNPQRGYGILRNPMYDGRLVWNRVTMVRDPDTGRRVNRENPLDARQEVEAEHLRIVPRPLFEAAVRRHAQQAEAVRTGKITKAPPRPFSGLIRCACCGGGMSIHDRCGEAIRIRCSTANESGSCENKARYRLEKIEEAIFLRLRAQLDRPDYLKEFVRVYAEERRRLTETARRDRARLERAAADSRARYMRLVDMMARGLIEGEEADAQVLQAKQAAEIARSELEIASSEDNVVELHPQATAAYTRAIADLSAALQRGDGTFDATSVEALRRIITEITVHPKDEAGDVLVEVRGNMERLLGIGQQIVGGPMVARGGLEPPTPREGHHHHHH”, the “soluble on expression in E. coli” value was “not soluble”.

As to “MSEKSIVTKILRYLKTVPGCFCWKEHGGMYGTAGLPDIIACVNGRFIAFEVKTPSGKTTKLQEATIKKILNAGGVAAVVHSVDEVKVILEKHDLLQRTKI”, the “soluble on expression in E. coli” value is recorded as “soluble”.

In the case of “MAHHHHHHMDIGELPDDQFPGAQYIPDLHGLGRERQALSCKVHEMKIPGQVSPYHVPEGEESSERETLYDENGLPIRTNSNDQEGDKKLWSWTDDGKLKLLCSQPIIPVSVVQGILRRDKIILIPQVEVTDFVVPKIYNQNIKHDVPKLDIKVECSNVEIPNVKYVEKEIIIPIITGYTHKFIPKWDVHEVPRPVVKYIGEQKIVEVEVPEIKYIDKIVEREVVVDTVEKRVPKIIEIPKYVDEVKYVWKPIEKIVYIQKLVPKFDVNLECPPPLIVPYPVQTVKQIPPVMVRKDVKFPDCDYTDFNSPYGSLPIPREYVDYYTSRQKAQKGIFSNCCESNCKNGEDHHGGETYYDVSPSSAMGVSEESLQNELNICNSSNPFVNTSADSILNKGGPRQALDAACM”, the “soluble on expression in E. coli” value is reported as “not soluble”.

On to “MADGQVAELLLRRLEASDGGLDSAELAAELGMEHQAVVGAVKSLQALGEVIEAELRSTKHWELTAEGEEIAREGSHEARVFRSIPPEGLAQSELMRLPSGKVGFSKAMSNKWIRVDKSAADGPRVFRVVDSMEDEVQRRLQLVRGGQAEKLGEKERSELRKRKLLAEVTLKTYWVSKGSAFSTSISKQETELSPEMISSGSWRDRPFKPYNFLAHGVLPDSGHLHPLLKVRSQFRQIFLEMGFTEMPTDNFIESSFWNFDALFQPQQHPARDQHDTFFLRDPAEALQLPMDYVQRVKRTHSQGGYGSQGYKYNWKLDEARKNLLRTHTTSASARALYRLAQKKPFTPVKYFSIDRVFRNETLDATHLAEFHQIEGVVADHGLTLGHLMGVLREFFTKLGITQLRFKPAYNPYTEPSMEVFSYHQGLKKWVEVGNSGVFRPEMLLPMGLPENVSVIAWGLSLERPTMIKYGINNIRELVGHKVNLQMVYDSPLCRLDAEPRPPPTQEAA”, for which the “soluble on expression in E. coli” value was “soluble”.

Consider “KSAKEMLEYCNSTGLSLSGMVMQNELALHSKKEIEEYFGHVWQTMQACIDRGMNTEGVLPGPLRVPRRASALRRMLVSSDKLSSDPMNVIDWVNMFALAVNEENAAGGRVVTAPTNGACGIVPAVLAYYDHFIESVSPDIYTRYFLAAGAIGALYKMNASISGAEVGCQGEVGVACSMAAAGLAELLGASPEQVCVAAEIGMEHNLGLTCDPVAGQVQVPCIERNAIASVKAINAARMAMRRTSAPRVSLDKVIETMYETGKDMNAKYRETSRGGLAIK”, for which the “soluble on expression in E. coli” value is on record as “not soluble”.

Turning to “MQDLGEVEEDPTELRIDVRHGFDTGPMNVQIAQLMQLATGRRRAPRQSSGSGIQLKIGGRIEVLSYQRKMHEAMKYLLGRLFGGKTVKVNHLAIGCKTILRIPTSFKLHVENLEILDTNTYNNMETVRLMIEASSLPLNMVKFRPTNFTTNNHPIVRTARMLYIHATSTRRRFRDFIEALARLKNIRVHVESRDLSSGSWYMTVFRCWMRYGKKVGTYYTFGTTEETINSAMKVFGRLYGSRTGFDGQITINLKKTSQVVIRKVQQENEWILGMKVESR”, the “soluble on expression in E. coli” value was “not soluble”.

Turning to “QITYWKERQRRKTIRAEEIRGLIYRIWKIYPSLLGQELLESTIFVFMVLAAVARLGAEDVAVYKLLDLVCGMLELPVYAYAAATQTYALQNHAAGKKAAVRSYEK”, the “soluble on expression in E. coli” value is reported as “not soluble”.

As to “MFFSEARARSRTWEASPSEHRKWVEVFKACDEDHKGYLSREDFKTAVVMLFGYKPSKIEVDSVMSSINPNTSGILLEGFLNIVRKKKEAQRYRNEVRHIFTAFDTYYRGFLTLEDFKKAFRQVAPKLPERTVLEVFREVDRDSDGHVSFRDFEYALNYGQKEA”, the “soluble on expression in E. coli” value is “not soluble”.

On to “MAHHHHHHMNSPVVKMKAVKNDVEIDNMKQAHILDGLALLQFFHWCEQKRKTKELFNETEMSLRHKVDYFRSTKKNFIFPSFSTISASGPNAAVIHYECTDKTNATIKPAIYLLDSGGQYLHGTTDVTRTTHFGEPTAEEKRIYTLVLKGHLRLRKVIFASYTNSSALDFIARENLFNNFMDYNHGTGHGVGLTLNVHEGGCSIGPVGGAPLKKNMVLSNEPGYYMKDKFGVRIENMQYVISKEITDTTEYLSFDDLTMYPYEKKLLDFSLLTNQEIKELNEYHTTIRNTLLPLVKQSPQEYGESVEKYLIEITEPIAIHNN”, for which the “soluble on expression in E. coli” value is reported as “not soluble”.

For the sequence “MSNDNEVPGSMVIVAQGPDDQYAYEVPPIDSAAVAGNMFGDLIQREIYLQKNIYYPVRSIFEQGTKEKKEINKKVSDQVDGLLKQITQGKREATRQERVDVMSAVLHKMESDLEGYKKTFTKGPFIDYEKQSSLSIYEAWVKIWEKNSWEERKKYPFQQLVRDELERAVAYYKQDSLSEAVKVLRQELNKQKALKEKED”, the “soluble on expression in E. coli” value was “soluble”.

On to “YATQSKNTNILLEYVSANPTGDLHIGHARNAAVGDSLANILIAAGYNVTREYYINDAGNQITNLARSIEARYFEALGDTSYEMPADGYNGKDIIEIGKDLAVKHPEIKDYSDEERLKTFRQLGVDYEMEKLKKDLSDFNVHFDNWFSETSLYENGAIKNTLSKMKELGYTYEADGATWLRTSDFKDDKDRVLIKKDGNYTYFTPDTAYHYNKINRGNDILIDLMGADHHGYINRLKASLETFGVDSDRLEIQIMQMVRLMQNGEEVKMSKRTGNAITLREIMDEVGIDAARYFLTMRSPDSHFDFDLELAKEQSQDNPIYYAQYAHARICSILKQAKE”, for which the “soluble on expression in E. coli” value was “not soluble”.

For the sequence “MGSDKIHHHHHHMDKKTYKLLRTLTHLSKDLYNLTLYTVKQHYELNGTFLPFVKAYHMVKDSEPYKLLPSQVAQQTMKIVERNFRSFFHVLKERKKGNYNRPVRPPKYLPKNGHFILIFPYQSFRVKEDRIILTLGKNFAEKYGVKHLEIPLPKNVKGHRIKEIRILPRYNALWFEVEYVYEVLPEERDLDRSKYLAIDLGLDNFATCVSTTGTAFIIEGRGLKSFNRWWNKEKAKLQSQYDKQGVKFGKRMVWLLKKRKNVVNDFMNKAVSYIVNYCLENGIGNVVIGELKGVKQNTDLGRRNNQNFHYIPYGLFKQKLKAKCERYGINYIEVDEAYTSKVDALTLEPIEKREKYLGKRGETWTVPVFRWCFNKC”, the “soluble on expression in E. coli” value is “not soluble”.

For the origin of these results see the DeepSol protein solubility set.
